According to patent US20260201046A1 (BIO RAD LABORATORIES, published 2026):

Target: T1, recombinant mouse sIL-6Ra (20-357) (mouse, UniProt P22272 20-357)
T1 construct: range 20-357; The CD33 part of the plasmid name is not explained; also called recombinant sIL-6Ra; recombinant soluble IL-6Ra
T1 sequence: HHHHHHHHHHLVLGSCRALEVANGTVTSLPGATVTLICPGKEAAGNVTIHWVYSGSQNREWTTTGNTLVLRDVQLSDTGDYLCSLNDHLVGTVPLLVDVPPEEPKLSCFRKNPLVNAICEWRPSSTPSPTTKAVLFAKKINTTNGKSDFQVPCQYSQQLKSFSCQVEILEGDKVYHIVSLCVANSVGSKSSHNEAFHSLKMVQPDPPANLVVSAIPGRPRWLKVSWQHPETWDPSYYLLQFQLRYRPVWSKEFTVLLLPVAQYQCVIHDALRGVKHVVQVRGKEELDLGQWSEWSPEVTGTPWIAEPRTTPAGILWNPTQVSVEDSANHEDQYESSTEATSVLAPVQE
Assay: SPR (Biacore), sIL-6Ra (20-357) amine-coupled to CM5 chip, antibody as analyte, 1:1 Langmuir fit
Procedure: The antigen-antibody affinity of four antibodies (rAb #22, rAb #52, rAb #62, a rat mAb RB01) were determined by an analysis service employing a surface plasmon resonance technology (Beijing Xtalbio Ltd. Co). It started with a directly immobilization of recombinant mouse sIL-6Ra (20-357) on a CM5 S sensor chip using Biacore® S200 machine. Approximately 27.8 resonance units (RU) of the sIL-6Ra (20-357) were immobilized at 25° C. with an amine coupling kit following the standard amine coupling procedure. The remaining active sites on the sensor chip were blocked with 1 M ethanolamine-HCl solution, pH 8.5 at a flow rate of 10 μL/min for 7 min, to finally reach 27.8 RU. The flow cells were washed with the injection of HBS-EP running buffer at 30 μL/min. For each antibody, a 2-fold serial dilution (0, 0.39 nM-200 nM) was injected at 15° C. to a channel with a flow rate of 30 μL/min for 120s and dissociation was followed for 720s. The curves were locally fitted with Biacore®8K analysis software (BIAevaluation) using a 1:1 Langmuir binding model.

Kd: 9.43 pM
B1: rAb #52 (antibody, V domains shown)
VH: QSLEESGGDLVKPGASLTLACTASGFSFSSGYYMCWVRQAPGKGLEWIGCIYTGSDTTYYASWAKGRFTISETSSTAATLQMTSLTAADTATYFCARDLGSRGNLWGPGTLVTVSS
VL: DIVMTQTPSSVSAAVGDTVTINCQASENIYSFLTWYQQKPGQRPKLLIYRASTLASGVPSRFKGSGSGTDFTLTISDLECADAATYYCQRNAYSSWAFGGGTEVVVK
notes: also called Antibody 52; recombinant rabbit monoclonal antibody from fusion clone #52
